By Kd is commonly meant the free concentration of one partner at which half of the binding sites on the other are occupied at equilibrium, for simple one-to-one binding. As usually defined, the IC50 is the point on the concentration scale where inhibition reaches its midpoint. As a reminder, the koff is the first-order rate constant of dissociation. Usually kon stands for the rate constant with which the complex forms.

Data on one substance can be found in publication PMC5800367.

The target of assay [1] is Recombinant human C5a (Homo sapiens) (UniProt P01031). Nature of the assay: kinetic exclusion assay. In general terms: A kinetic exclusion assay measures how much of one partner remains free in solution.
Assay [2] shares this target. Nature of the assay: DELFIA biochemical competition assay.
The target of assay [3] is Serum purified human C5 (Homo sapiens) (UniProt P01031). The assay is described as follows: DELFIA biochemical competition assay.
Assay [4] has as its target Serum purified human C5a (Homo sapiens) (UniProt P01031). The assay is described as follows: SPR. (In general: SPR reads the build-up and loss of mass on a sensor chip optically.)
Assay [5] has as its target Serum purified Cynomolgus C5a (Macaca fascicularis). Nature of the assay: SPR.
Assay [6] addresses Recombinant Cynomolgus C5adesArg (Macaca fascicularis). The assay is described as follows: SPR.
Assay [7] has as its target Recombinant human C5a (Homo sapiens) (UniProt P01031). Nature of the assay: SPR.

For the substance MEDI7814 (antibody), the Kd is 0.004 nM in assay [1], 0.008 nM in assay [4], 0.01 nM in assay [6] and 0.014 nM in assay [7]. Moreover, the IC50 in assay [2] worked out at 0.3 nM; in assay [3], 0.6 nM. In addition, the koff in assay [4] turned out to be 0.000165 s⁻¹; in assay [5] it was 0.000154 s⁻¹; in assay [6], 0.000144 s⁻¹; in assay [7], 0.000251 s⁻¹. In addition, the kon in assay [4] was determined as 2.18e+07 M⁻¹ s⁻¹; in assay [5] it was 8.08e+06 M⁻¹ s⁻¹; in assay [6], 1.51e+07 M⁻¹ s⁻¹; in assay [7] it was 1.74e+07 M⁻¹ s⁻¹.
